From patent US20140134183A1 (CELL MEDICA SWITZERLAND, published 2014) come the findings set out here.

“And” between values parts separate entries of the source, which are not always exact repeats. Identical values can stand only once.

Assay [1] concerns the target recombinant human IL-1 beta (human, UniProt P01584 117-269). The assay can be described thus: cell-based or functional assay.
Another assay addresses T1, swine IL-1 beta (swine, UniProt P26889 115-267, limits assumed).
T1 construct: Bought protein; also called porcine IL-1 beta
T1 sequence (looked up): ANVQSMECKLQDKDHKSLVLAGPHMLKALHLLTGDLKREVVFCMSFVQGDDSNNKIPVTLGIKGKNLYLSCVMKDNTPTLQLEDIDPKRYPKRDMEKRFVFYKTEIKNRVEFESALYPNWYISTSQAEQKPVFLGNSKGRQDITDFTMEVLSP
Put plainly: ELISA, IL-1 beta coated at 2 mcg/ml, Protein L-HRP detection. An excerpt: (§1) Binding to the recombinantly expressed IL-1 beta proteins of the following species was investigated: cynomolgus (Sino Biological Inc., USA, cat. no. 90010-CNAE), rhesus macaque (R&D Systems, USA, cat. no. 1318-RL/CF), swine (Kingfisher Biotech, USA, cat. no. RP0297S-025), canine (Kingfisher Biotech, USA, cat. no. RP0085D-025), guinea pig (Kingfisher Biotech, cat. no. RP0343GP-025), rat (Peprotech, cat. no. 400-01B) and mouse (BioLegend, cat. no. 575102). […] Briefly, proteins were coated at a concentration of 2 mcg/ml over night at 4° C. on Maxisorp 96-well microplates in PBS. […] The ELISA was developed with BM Blue POD substrate (Roche Applied Science) and the absorbance was measured at 450 nm.

In another assay the target is T2, canine IL-1 beta (canine, UniProt Q28292 115-266, limits assumed).
T2 construct: Bought protein
T2 sequence (looked up): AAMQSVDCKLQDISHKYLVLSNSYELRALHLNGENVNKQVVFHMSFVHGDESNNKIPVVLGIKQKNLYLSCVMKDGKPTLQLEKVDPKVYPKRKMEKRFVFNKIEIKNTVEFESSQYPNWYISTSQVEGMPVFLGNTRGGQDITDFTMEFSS
The assay is described as above.
Source text: as §1

The target of another assay is T3, guinea pig IL-1 beta (guinea pig, UniProt Q9WVG1 115-266).
T3 construct: Bought protein
T3 sequence: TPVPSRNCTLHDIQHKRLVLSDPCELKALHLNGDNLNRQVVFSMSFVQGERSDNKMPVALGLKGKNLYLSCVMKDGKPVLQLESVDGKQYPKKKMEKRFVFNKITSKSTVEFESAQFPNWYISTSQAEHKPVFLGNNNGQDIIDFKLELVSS
The assay is described as above.
Source text: as §1

The target in the next assay is T4, mouse IL-1 beta (mouse, UniProt P10749 118-269).
T4 construct: Bought protein
The description is as above.
Source text: as §1

In the next assay the target is T5, rhIL-1ra (human, UniProt P18510 26-177).
T5 construct: Bought protein; also called rhIL-1 receptor antagonist; IL-1 beta receptor antagonist
The assay can be described thus: ELISA, cytokine coated, carried out essentially as for the species orthologs. The procedure: (§2) Briefly, proteins were coated at a concentration of 2 mcg/ml over night at 4° C. on Maxisorp 96-well microplates in PBS. […] The ELISA was developed with BM Blue POD substrate (Roche Applied Science) and the absorbance was measured at 450 nm.
(§3) In the applied ELISA assay the following antibodies served as positive controls: biotin anti-human IL-1ra (BioLegend, cat. no. 509501), biotin anti-human IL-1 alpha (BioLegend, cat. no. 515703), anti-human IL-18 polyclonal antibody (BioVision, cat. no. 5179-100), biotin anti-human IL-33 antibody (Peprotech, cat. no. 500-P261Bt), anti-human TNF alpha scFv DLX105 (Delenex propriety antibody described in WO 2006/131013 A), biotin anti-human IL-6 (R&D systems, DY206, cat. no. 840114), anti-human IL-36ra (R&D systems, cat. no. AF1275). The ELISA was carried out essentially as described above.

The next assay has as its target T6, rhIL-1 alpha (human, UniProt P01583 113-271).
T6 construct: Bought protein
T6 sequence (looked up): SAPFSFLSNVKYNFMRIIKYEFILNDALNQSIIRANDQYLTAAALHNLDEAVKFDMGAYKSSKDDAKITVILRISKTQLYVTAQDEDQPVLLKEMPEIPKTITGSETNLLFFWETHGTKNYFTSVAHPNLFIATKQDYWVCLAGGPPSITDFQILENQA
The description is as above. The procedure: as §2, §3

The next assay concerns the target T7, rhIL-18 (human, UniProt Q14116 37-193).
T7 construct: Bought protein
The assay is described as above. The protocol: as §2, §3

For the next assay, the target named is T8, rhIL-33 (human, UniProt O95760 112-270).
T8 construct: Bought protein
T8 sequence (looked up): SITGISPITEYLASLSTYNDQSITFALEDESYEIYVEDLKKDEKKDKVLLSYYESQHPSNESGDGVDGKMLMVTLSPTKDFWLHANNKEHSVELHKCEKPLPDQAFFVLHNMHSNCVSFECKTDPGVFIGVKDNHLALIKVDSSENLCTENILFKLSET
Described as above. The protocol:
as §2, §3

A further assay has as its target T9, IL-36ra (human, UniProt Q9UBH0 2-155).
T9 construct: Bought protein
T9 sequence (looked up): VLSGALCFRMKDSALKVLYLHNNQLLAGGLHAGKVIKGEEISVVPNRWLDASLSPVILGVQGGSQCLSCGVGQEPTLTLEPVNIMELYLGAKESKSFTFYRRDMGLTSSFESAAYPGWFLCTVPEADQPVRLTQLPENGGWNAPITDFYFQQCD
The description is as above. The procedure: as §2, §3

In another assay the target is T10, rhTNF alpha (human, UniProt P01375 77-233).
T10 construct: Bought protein
The description is as above. The protocol: as §2, §3

For another assay, the target named is T11, rhIL-6 (human, UniProt P05231 30-212).
T11 construct: Bought protein
The description is as above. The protocol: as §2, §3

Another assay addresses T12, rat IL-1 beta (rat, UniProt Q63264 117-268).
T12 construct: Bought protein
Put plainly: ELISA, IL-1 beta coated at 2 mcg/ml, DLX2323 0.1 to 1.0 mcg/ml, Protein L-HRP detection.
Source text: as §1

The next assay concerns the target T13, cynomolgus IL-1 beta (cynomolgus, UniProt P79182 117-268).
T13 construct: Bought protein
The description is as above.
Source text: as §1

The next assay has as its target T14, rhesus macaque IL-1 beta (rhesus macaque, UniProt P48090 117-269).
T14 construct: Bought protein; also called rhesus monkey IL-1 beta
The assay is described as above.
Source text: as §1

T13 sequence (P79182 117-268 limits assumed): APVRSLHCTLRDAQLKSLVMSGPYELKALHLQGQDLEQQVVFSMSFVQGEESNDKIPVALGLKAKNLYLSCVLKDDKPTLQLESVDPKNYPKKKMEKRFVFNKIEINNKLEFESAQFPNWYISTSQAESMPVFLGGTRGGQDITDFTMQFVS
T11 sequence (P05231 30-212 limits assumed): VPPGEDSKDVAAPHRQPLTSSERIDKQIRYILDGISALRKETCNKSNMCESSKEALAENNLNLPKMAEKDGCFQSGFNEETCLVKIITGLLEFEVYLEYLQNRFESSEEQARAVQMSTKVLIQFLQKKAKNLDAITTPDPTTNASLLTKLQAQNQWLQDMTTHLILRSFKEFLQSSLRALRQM
T12 sequence (Q63264 117-268 limits assumed): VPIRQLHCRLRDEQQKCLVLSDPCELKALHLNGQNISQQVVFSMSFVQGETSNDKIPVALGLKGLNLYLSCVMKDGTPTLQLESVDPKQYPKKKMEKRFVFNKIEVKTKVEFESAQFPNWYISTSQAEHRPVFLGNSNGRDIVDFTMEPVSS
T5 sequence (P18510 26-177): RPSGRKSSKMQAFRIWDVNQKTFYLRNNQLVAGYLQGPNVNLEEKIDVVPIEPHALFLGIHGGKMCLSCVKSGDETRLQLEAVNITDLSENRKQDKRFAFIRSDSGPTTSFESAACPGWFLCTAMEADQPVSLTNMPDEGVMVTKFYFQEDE
T10 sequence (P01375 77-233): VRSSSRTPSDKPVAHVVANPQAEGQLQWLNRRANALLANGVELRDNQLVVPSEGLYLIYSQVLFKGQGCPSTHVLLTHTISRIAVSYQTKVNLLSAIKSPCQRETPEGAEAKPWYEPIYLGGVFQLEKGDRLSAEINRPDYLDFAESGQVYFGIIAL
T14 sequence (P48090 117-269 limits assumed): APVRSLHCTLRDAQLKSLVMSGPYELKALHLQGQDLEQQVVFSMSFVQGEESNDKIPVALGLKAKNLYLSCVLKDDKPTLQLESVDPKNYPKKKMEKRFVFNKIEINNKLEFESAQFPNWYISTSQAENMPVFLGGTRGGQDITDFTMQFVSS
T4 sequence (P10749 118-269 limits assumed): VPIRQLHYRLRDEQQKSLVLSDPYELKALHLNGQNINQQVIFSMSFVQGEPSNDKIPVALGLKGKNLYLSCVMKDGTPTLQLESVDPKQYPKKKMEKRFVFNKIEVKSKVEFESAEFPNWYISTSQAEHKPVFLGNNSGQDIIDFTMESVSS

B1: DLX2323 (scFv)
scFv: EIVMTQSPSTLSASVGDRVIITCQASQSIDNWLSWYQQKPGKAPKLLIYRASTLASGVPSRFSGSGSGAEFTLTISSLQPDDFATYYCQNTGGGVSIAFGQGTKLTVLGGGGGSGGGGSGGGGSGGGGSEVQLVESGGGLVQPGGSLRLSCTASGFSLSSAAMAWVRQAPGKGLEWVGIIYDSASTYYASWAKGRFTISRDTSKNTVYLQMNSLRAEDTAVYYCARERAIFSGDFVLWGQGTLVTVSS
notes: also called scFv DLX2323; parental scFv
Regarding B1, in [1], the “IC50 of IL-1 beta-induced IL-6 release from human dermal fibroblasts” value was 3 pM and 0.002 nM to 0.004 nM (2×). Further, the binding result with swine IL-1 beta was “no binding (tested: 1.0 mcg/ml)”; with canine IL-1 beta, “no binding (tested: 1.0 mcg/ml)”; in the assay with guinea pig IL-1 beta it was “no binding (tested: 1.0 mcg/ml)”; with mouse IL-1 beta, “no binding (tested: 1.0 mcg/ml)”; with rhIL-1ra, “no binding”; with rhIL-1 alpha it was “no binding”. The binding result in the assay with rhIL-18 is “no binding”; with rhIL-33, “no binding”; with IL-36ra it was “no binding”; in the assay with rhTNF alpha it was “no binding”; with rhIL-6 it was “no binding”; in the assay with rat IL-1 beta, “binds”. In addition, the binding result with cynomolgus IL-1 beta and with rhesus macaque IL-1 beta was “binds” throughout.
